Results taken from patent US20070092942.

How the values were obtained:
[1] = biological target: Ub C-terminal 7-amido-4-methylcoumarin, P0CG47
[2] = biological target: His-tagged Lys^63-linked polyubiquitin, P0CG47
[3] = biological target: isopeptide-linked ISG15-peptide conjugate, P05161
[4] = biological target: isopeptide-linked SUMO-1-peptide conjugate, P63165
[5] = biological target: His-tagged Lys^48-linked polyubiquitin, P0CG47
[6] = biological target: isopeptide-linked Nedd8-peptide conjugate, Q15843
isopeptide-linked Nedd8-peptide conjugate, Q15843, sequence (Q15843 whole entry, looked up, tested part not stated): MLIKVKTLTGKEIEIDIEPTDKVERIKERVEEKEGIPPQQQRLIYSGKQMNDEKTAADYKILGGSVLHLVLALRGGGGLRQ

[7] = biological target: isopeptide-linked Ub-peptide conjugate, P0CG47
isopeptide-linked Ub-peptide conjugate, P0CG47, sequence (P0CG47 whole entry, looked up, tested part not stated): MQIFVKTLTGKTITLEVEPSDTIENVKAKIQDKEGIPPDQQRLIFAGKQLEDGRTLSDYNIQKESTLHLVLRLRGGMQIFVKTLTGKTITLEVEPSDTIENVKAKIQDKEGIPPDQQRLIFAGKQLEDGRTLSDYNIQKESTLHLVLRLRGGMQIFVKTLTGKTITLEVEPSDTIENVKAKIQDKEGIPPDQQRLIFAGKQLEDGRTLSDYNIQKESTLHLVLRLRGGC

Ub C-terminal 7-amido-4-methylcoumarin, P0CG47, sequence (P0CG47 whole entry, looked up): as the sequence (P0CG47 whole entry, looked up, tested part not stated) above
His-tagged Lys^48-linked polyubiquitin, P0CG47, sequence (P0CG47 whole entry, looked up): as the sequence (P0CG47 whole entry, looked up, tested part not stated) above
His-tagged Lys^63-linked polyubiquitin, P0CG47, sequence (P0CG47 whole entry, looked up): as the sequence (P0CG47 whole entry, looked up, tested part not stated) above
isopeptide-linked SUMO-1-peptide conjugate, P63165, sequence (P63165 1-97): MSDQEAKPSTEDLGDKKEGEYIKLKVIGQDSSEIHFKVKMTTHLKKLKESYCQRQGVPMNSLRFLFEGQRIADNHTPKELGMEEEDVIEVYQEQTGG
isopeptide-linked ISG15-peptide conjugate, P05161, sequence (P05161 1-157): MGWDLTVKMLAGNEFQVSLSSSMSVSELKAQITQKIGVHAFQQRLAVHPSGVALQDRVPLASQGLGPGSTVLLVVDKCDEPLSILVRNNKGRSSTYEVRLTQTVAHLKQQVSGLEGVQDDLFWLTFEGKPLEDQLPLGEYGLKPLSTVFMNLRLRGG

Protein	UbAMC hydrolysis [1]	polyubiquitin chain depolymerization, anti-His immunoblot [2]	isopeptidase assay, loss of biotin signal [3]	isopeptidase assay, loss of biotin signal [4]	polyubiquitin chain depolymerization, anti-His immunoblot [5]	isopeptidase assay, loss of biotin signal [6]	isopeptidase assay, loss of biotin signal [7]	Ub-AMC cleavage, turnover number [1] [min⁻¹]
EBV205 (protein) MSNGDWGQSQRTRGTGPVRGIRTMDVNAPGGGSGGSALRILGTASCNQAHCKFGRFAGIQCVSNCVLYLVKSFLAGRPLTSRPELDEVLDEGARLDALMRQSGILKGHEMAQLTDVPSSVVLRGGGRVHIYRSAEIFGLVLFPAQIANSAVVQSLAEVLHGSYNGVAQFILYICDIYAGAIIIETDGSFYLFDPHCQKDAAPGTP	efficiently hydrolyzed UbAMC	–	–	–	–	–	–	–
EBV205 C61A (protein) MSNGDWGQSQRTRGTGPVRGIRTMDVNAPGGGSGGSALRILGTASCNQAHCKFGRFAGIQAVSNCVLYLVKSFLAGRPLTSRPELDEVLDEGARLDALMRQSGILKGHEMAQLTDVPSSVVLRGGGRVHIYRSAEIFGLVLFPAQIANSAVVQSLAEVLHGSYNGVAQFILYICDIYAGAIIIETDGSFYLFDPHCQKDAAPGTP	absent in the case of active site mutants	–	–	–	–	–	–	–
His6UL36^USP (protein) MGGGNNTNPGGPVHKQAGSLASRAHMIAGTPPHSTMERGGDRDIVVTGARNQFAPDLEPGGSVSCMRSSLSFLSLIFDVGPRDVLSAEAIEGCLVEGGEWTRATAGPGPPRMCSIVELPNFLEYPGARGGLRCVFSRVYGEVGFFGEPAAGLLETQCPAHTFFAGPWALRPLSYTLLTIGPLGMGLFRDGDTAYLFDPHGLPEGTPAFIAKVRAGDMYPYLTYYTRDRPDVRWAGAMVFFVPSGPEPAAPADLTAAALHLYGASETYLQDEAFSERRVAITHPLRGEIAGLGEPCVGVGPREGVGGPGPHPPTAAQSPPPTRARRDDRASETSRGTAGPSAKPEAKRPNRAPDDVWAVALKGTPPTDPPSADPPSADPPSAIPPPPPSAPKTPAAEAAEEDDDDMRVLEMGVVPVGRHRARYSAGLPKRRRPTWTPPSSVEDLTSGEKTKRSAPPAKTKKKSTPKGKTPVGAAVPASVPEPVLASAPPDPAGPPVAEAGEDDGPTVPASSQALEALKTRRSPEPPGADLAQLF	–	The failure of UL36^USP to cleave Lys^63-linked polyUb	Isopeptide-linked conjugates of Nedd8, ISG15 or SUMO-1 are not substrates for UL36^USP	Isopeptide-linked conjugates of Nedd8, ISG15 or SUMO-1 are not substrates for UL36^USP	we observed deubiquitination of Lys^48-linked polyUb only	Isopeptide-linked conjugates of Nedd8, ISG15 or SUMO-1 are not substrates for UL36^USP	results in cleavage of the Ub-peptide conjugate only	~6
